Measured values taken from patent US20110002929A1 (Ablynx, published 2011).
Where two headings read alike, the source gives them in different places.

Legend:
human RANK-L [1] = biological target: T1, human RANK-L (human, UniProt O14788 140-317, limits assumed); assay: cell-based or functional assay
T1 sequence (looked up): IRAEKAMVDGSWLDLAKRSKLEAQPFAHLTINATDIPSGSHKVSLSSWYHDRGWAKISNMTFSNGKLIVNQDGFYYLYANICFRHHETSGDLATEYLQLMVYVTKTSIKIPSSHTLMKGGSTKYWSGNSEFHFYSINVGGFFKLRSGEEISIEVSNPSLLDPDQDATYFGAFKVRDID

human RANK-L [2] = biological target: T1, human RANK-L; assay: ELISA (ED50), biotin-hRANK-L on neutravidin
Procedure, shortened: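 Nanobodies at 500 nM to 160 pM in 1% casein/PBS incubated 1 h at room temperature; binding detected via anti-myc then anti-mouse-HRP with TMB, OD 450 nm.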

human RANK-L [3] = biological target: T1, human RANK-L; assay: AlphaScreen, biotin-hRANK-L / RANK-huFc beads
Procedure: To this mixture, the RANK acceptor beads and the streptavidin donor beads were added and further incubated for 1 hour at room temperature. Fluorescence was measured by reading plates on the EnVision Multilabel Plate Reader (Perkin Elmer) using an excitation wavelength of 680 nm and an emission wavelength of 520 nm.

human RANK-L [4] = biological target: T1, human RANK-L; assay: AlphaScreen, biotin-hRANK-L / RANK-huFc beads; remark: listed apart in the source
mouse RANK-L = biological target: T2, mouse RANK-L (mouse, UniProt O35235 158-316, limits assumed); assay: ELISA (ED50) on murine RANK-L, set-up as for human RANK-L
T2 construct: also called murine RANK-L
T2 sequence (looked up): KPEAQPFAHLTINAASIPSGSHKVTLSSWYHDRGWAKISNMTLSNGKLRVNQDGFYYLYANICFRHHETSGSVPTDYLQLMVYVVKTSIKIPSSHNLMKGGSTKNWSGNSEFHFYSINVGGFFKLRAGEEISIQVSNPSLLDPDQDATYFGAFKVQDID
Procedure: Therefore 2 μg/ml neutravidin was coated overnight at 4° C. The plates were washed 5 times with 300 μl PBS and then blocked with […] 1% casein/PBS for 2 hours at room temperature. […] After extensive washing with PBS, varying concentrations of Nanobodies starting from 500 nM to 160 pM diluted in 1% casein/PBS were added to the wells and the plates were incubated for 1 hour at room temperature. Bound Nanobodies were detected by subsequent incubations of a primary mouse anti-myc antibody and a secondary anti mouse-HRP conjugate (DAKO, Glostrup, Denmark) and using TMB-H2O2 (Pierce, Rockford, Ill., USA) substrate cocktail. The reaction was stopped with H₂SO₄ and the OD was read at 450 nm.

B1: RANKL3 (VHH, not shown: small tags and cut ends)
VHH: EVQLVESGGKLVQAGGSLRLSCAVSGRTSSIYNMAWFRQGPGKGRESVGRIYWSDDNTYYADSVKGRFTISRDNATNTVYLQMNSLKPEDTAVYYCAGKTTKWSLEYDYWGQGTQVTVSS
Which results are given for B1?
RANK-L induced NF-kappaB activation (luciferase reporter, HEK293T cells), IC50 (human RANK-L [1]): 8.32 nM; EC50 (human RANK-L [2]): 0.568 nM; IC50 (human RANK-L [3]): 0.497 nM; IC50 (human RANK-L [4]): 0.474 nM; EC50 (mouse RANK-L): ~0.6 nM
